# Measurements published in patent US20240218057A1 (ROCKEFELLER UNIVERSITY, published 2024).
# B1: C1031 (antibody, V domains shown)
# VH: QLQLQESGPGLVKPSETLSLTCTVSGGSINTSTYYWGWIRQPPGKGLEWIGNIYYSGITYYNPSLKSRVTISVDTSKNQFSLKLRSVTAADTAVYYCARQHRFGSGSSELLWGQGTLVTVSS
# VL: QSALTQPPSASGSPGQSVTISCTGTSSDVGSYNYVSWYQQHPGKAPKLMIYEVTKRPSGVPDRFSGSKSGNTASLTVSGLQADDEADYYCSSYAGSSNLVFGGGTKLTV
# notes: IgG; V domains only
# B2: C1032 (antibody, V domains shown)
# VH: EVQLVESGGSLVKPGGSLRLSCVASGLTFNHAWMSWVRQAPGKGLEWVGRIKSKIDGGTTDYAAPVKGRFTISRDDSKSTQYLQMNSLKTEDTAVYYCTTDCFWRLGGTTCYEHDAFDVWGQGTMVTVS
# VL: DIQMTQSPSSLSASVGDRVTITCRASQAIATFLNWYQQKPGKAPKLLIYAASSLQSGVPSRFSGSGSGTDFTLTISSLQPEDFATYYCQQSYNSLHFGGGTKVEIK
# notes: IgG; V domains only
# B3: C1033 (antibody, V domains shown)
# VH: QVQLVQSGAEVKKPGSSVKVSCKASGGTFSRNVISWVRQAPGQGLEWMGGIIPMFGTANYAQKFQGRVTISADESTSTAYMELSSLRSEDTAVYYCAREDFILESAPIRENSYYYYGMDVWGQGTTVTVSS
# VL: EIVLTQSPGTLSLSPGERATLSCRASQSVSSNYLAWYQQKPGQAPRLLIYDASSRATGIPDRFSGSGSGTDFTLTIRRLEPEDFAVYYCQQYGGSPRTFGQGTKVEIK
# notes: IgG; V domains only
# B4: C1034 (antibody, V domains shown)
# VH: QLQLQESGPGLVKPSETLSLTCTVSGGSVSSNNHYWGWIRQPPGKGLEWIGSISSSGSTHHNPSLRSRVTISVDTSKNHFSLKLNSVTATDTAVYYCARVDSSGWYTGDVFDVWGQGTMVTVSS
# VL: DIQMTQSPSSLSASVGDRVTITCRASQTINNYLNWYQQKPGKPPKLLIYAAFSLHSGVPSRFSGSRSGTDFTLTISSLQPEDFATYYCQHSYSTMCSFGQGTKLEIK
# notes: IgG; V domains only
# B5: C1035 (antibody, V domains shown)
# VH: EVQLVESGGGLIQPGGSLRLSCAASGLTVSRNYMNWVRQAPGKGLEWVSVMYSGGSTFYADSVKGRFTISRDNSKNTLYLQMNSLRAEDTAVYYCARESYGMDVWGQGTTVTVSS
# VL: EIVLTQSPGTLSLSPGERATLSCRASQSFSSTYLAWYQQKPGQAPRLLIYGASSRATGIPDRFSGSGSGTDFTLTISRLEPEDFAVYYCQQYVTSPWTFGQGTKVEIK
# notes: IgG; V domains only
# B6: C1036 (antibody, V domains shown)
# VH: EVQLVESGGGLIQPGGSLRLSCAASGLIVSRNYMNWVRQVPGKGLEWVSVMYAGGSTFYADSVKGRFTISRDDSKNTLYLQMNSLRPEDTAVYYCARESYGMDVWGQGTTVTVSS
# VL: EIVLTQSPGTLSLSPGERATLSCRASQSISSTYLAWYQQKPGQAPRLLIYGASSRATGIPDRFSGSGSGTDFTLTISRLEPEDFAVYYCQQYVTSPWTFGQGTKVEIK
# notes: IgG; V domains only
# B7: C1038 (antibody, V domains shown)
# VH: QVQLVQSGAEVKKPGASVKVSCKASGYTFTSYYMHWVRQAPGQGLEWMGIINPSGGSTRYAQKFQGRVTMTRDTSTSTVYMELSSLRSEDTAVYYCAREGVGGTSYFDYWGQGTLVTVSS
# VL: SYELTQPPSVSVAPGKTARITCGGNNIGSKSVHWYQQKPGQAPVLVVYDDSDRPSGIPERFSGSNSGNTATLTISRVEAGDEADYYCQVWDSSSDPYVFGTGTKVTVL
# notes: IgG; V domains only
# B8: C1039 (antibody, V domains shown)
# VH: QVQLVQSGAEVKKPGASVKVSCKASGYTFTSHYMHWVRQAPGQGLEWMGIINPRTRYAQMFQGRVSMNRDTSTSTVYMELSSLTSEDTAVYYCAREGLGATAYFDYWGQGTLVTVSS
# VL: SYELTQPPSVSVAPGKTAGITCGGSDIGSKSVHWYQQKPGQAPVLVVYDDSDRPSGIPERFSGSNSGNTATLTISRVEAGDEADYYCQVWDSSSDPYVFGTGTKVSVL
# notes: IgG; V domains only
# B9: C1041 (antibody, V domains shown)
# VH: QVQLVQSGAEVKKPGASVKVSCKASGYTFSDHYIYWVRQAPGQGLEWMGIINPSAGSTSYAQKFQGRVTMTRDTSTSTVYMELSSLRSEDTAVYYCARDIVFVPATMAMDVWGLGTTVTVSS
# VL: EIVLTQSPATLSLSPGERATLSCRASQSVSRYLAWYQQKPGQAPRLLIYDASNRATGIPARFSGSGSGTDFTLTISSLEPEDFAVYYCQQRSNWLFTFGPGTKVDIK
# notes: IgG; V domains only
# B10: C1042 (antibody, V domains shown)
# VH: QVQLVQSGAEVKKPGASVKVSCKASGYTFSDHYIYWVRQAPGQGLEWMGIINPSGGSTSYAQKFQGRVTMTRDTSTSTVYMELSSLKSEDTAVYYCSRDIVFVPATMAMDVWGQGTTVTVSS
# VL: EIVLTQSPATLSLSPGERATLSCRASQSVSRYLAWYQQKPGQAPRLLIYDASNRATGIPARFSGSGSGTDFTLTISSLEPEDFAVYYCQQRSNWLFTFGPGTKVDIK
# notes: IgG; V domains only
# B11: C1044 (antibody, V domains shown)
# VH: QVQLQESGPGLVKPSQTLSLTCTVSGGSISSGNYYLTWIRQPAGKGLEWIGHIYTSGSTNYNPSLKSRVTISVDTSMNQFSLKLSSVTAADTAVYYCARDIPPTWYFDLWGRGTLVTVSS
# VL: SYELTQPPSVSVAPGKTARITCGGNNIGSKNVHWYQQKPGQAPVLVVYDDSDRPSGIPERFSGSNSGNTATLTISRVEAGDEAGYYCQVWDSTSDHLFWVFGGGTKLTVL
# notes: IgG; V domains only
# B12: C1045 (antibody, V domains shown)
# VH: QVQLQESGPGLVKPSQTLSLTCTVSGDSISSGNYYWSWIRQPAGKGLEWIGHIYTSGSPNYKPSLKSRVTISLDTSKNQFSLKLTSVTAADTAMYYCARDIPSTWYFDLWGRGTLVTVSS
# VL: SYELTQPPSVSVAPGKTARIPCGGTDIGSKNVHWYQQKPGQAPVLAVYDDSDRPSGIPERFSGSNSGSTATLTISRVEAGDEADYYCQVWDSSGDRLSWVFGGGTKLTVL
# notes: IgG; V domains only
# B13: C950 (antibody, V domains shown)
# VH: QVQLVESGGGLVKPGGSLRLSCAASGFTFSDYCVTWIRQAPGKGLEWLSYSNTNDSSRSYADSVKGRFTISRDNAKNSLYLQMDSLRAEDTAVYYCARRGDGNVPLFHYYYMDVWGKGTTVTVSS
# VL: QSVLTQPPSASGTAGQRVTISCSGGSSNIGSNTVHWYQQLPGTAPKLLIYSNYKRPSGVPDRFSGSKSGASASLAISGLQSEDEAEYYCAAWDDSANGPIFGGGTKLTVL
# notes: IgG; V domains only
# B14: C838 (antibody, V domains shown)
# VH: EVQLVESGGGLVQPGKSLRLSCTASGFTFEDYAMHWVRQAPGKGLEWVSGINWKSGSRGYADSAKGRFTISGNTAKNTLHLQMNSLRAEDTAFYYCAKAGVRNIAAAGPDLNFDFWGQGTLVTVSS
# VL: EIVLTQSPATLSLSPGERATLSCRASQSVGTYLAWYQHKLGQAPRLLIYDATKRATGIPARFSGSGSGTDFTLTISSLEPEDFAIYYCQQRITFGQGTRLEIK
# notes: IgG; V domains only
# B15: C983 (antibody, V domains shown)
# VH: QVQLVESGGGVVRPGRSLRLSCAASGFTFSKYGMHWVRQAPGKGLECVASIAYDGSDDSYADSVKGRFIISRDNSKNTLYLQMNSLRAADTAVYYCAKVLGSYCSASSCHGQRPDYWGQGTLVTVSS
# VL: DIQMTQSPSSLSAYVGDRVTITCQASQDISNHLNWYQQKPGKAPNLLIYDASNLETGVPSRFSGSGSGTDFSFTISSLQPEDIATYYCQQYDNVPPWTFGQGTKVEIK
# B16: C984 (antibody, V domains shown)
# VH: QVQLVQSGTEVKKPGDSVQVSCKTSGYSFTGYYIHWVRQAPGQGLEWMGRINPNSGGTNYAQKFQGRVIMTRDTSITTAFMELTRLRYDDTAVYFCAREPIEGVIGGMIVNYYYMDVWGRGTTVTVSS
# VL: QSALTQPASVSGSPGQSITISCTGTSSDVGGYYYVSWYQQHPGKAPKLMIYDVSSRPSGVSNRFSGSKSGNTASLTISGLQAEDEADYYCSSYTSSNTLVVFGGGTKLTVL
# Molecular target: T1, SARS-COV-2 RBD (SARS-COV-2, UniProt P0DTC2 319-539)
# T1 construct: also called WT RBD
# Assay: ELISA, RBD coated
row,Binder,EC50 [ng/mL]
1,B1,8.71
2,B2,2.89
3,B3,3.63
4,B4,2.77
5,B5,2.05
6,B6,1.76
7,B7,2.46
8,B8,2.61
9,B9,3.65
10,B10,4.55
11,B11,3.22
12,B12,2.57
13,B13,2.15
14,B14,3.03

# Molecular target: T2, SARS-COV-2 RBD (SARS-COV-2, UniProt P0DTC2 319-539)
# T2 construct: also called WT RBD
# Assay: ELISA, RBD coated on plate
row,Binder,EC50 [ng/mL]
1,B15,2.11
2,B16,2.76
